Patent publication US20220106398A1 (IGM BIOSCIENCES, published 2022)

T1: cynomolgus monkey His6-GITR (cynomolgus monkey)
T1 construct: His6-tagged recombinant protein; also called cGITR-His; cyno GITR-His
T1 chain: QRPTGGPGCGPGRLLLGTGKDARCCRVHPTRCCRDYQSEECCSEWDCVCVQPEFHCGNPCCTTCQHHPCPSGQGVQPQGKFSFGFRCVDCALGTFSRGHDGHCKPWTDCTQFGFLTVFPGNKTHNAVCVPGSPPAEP

T2: human His6-GITR (human, UniProt Q9Y5U5 26-162)
T2 construct: His6-tagged recombinant protein; also called hGITR-His; human GITR-His
T2 sequence: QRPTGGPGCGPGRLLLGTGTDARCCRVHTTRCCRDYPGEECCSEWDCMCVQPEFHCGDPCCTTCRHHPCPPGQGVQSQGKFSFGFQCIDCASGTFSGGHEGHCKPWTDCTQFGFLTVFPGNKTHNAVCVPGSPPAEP

T3: mouse His6-GITR (mouse, UniProt O35714 20-153)
T3 construct: His6-tagged recombinant protein; also called mGITR-His; mouse GITR-His
T3 sequence: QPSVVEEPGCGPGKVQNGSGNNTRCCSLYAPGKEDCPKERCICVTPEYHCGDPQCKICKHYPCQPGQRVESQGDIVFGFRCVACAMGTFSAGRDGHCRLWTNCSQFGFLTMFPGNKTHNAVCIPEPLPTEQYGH


Assays:
[1] = molecular target: T1, cynomolgus monkey His6-GITR; test: ELISA, scFv periplasmic extract on coated His6-GITR
Method: (§1) The SuperHuman-2.0 scFv Antibody Library (available from Distributed Bio, South San Francisco, Calif.) was used to perform selection with human, cynomolgus or mouse GITR proteins. Selected phage clones from overnight growth were inoculated into wells in 96 well deep well plates containing 1 mL of medium. scFv expression was induced by addition of IPTG (Teknova) to a final concentration of 1 mM. Plates were grown overnight after induction. To prepare periplasmic extracts (PPE), the plates containing the phage clones were centrifuged at 2500 rpm for 10 min, the supernatant discarded and then pellets treated with 75 μL of cold periplasmic extract buffer with appropriate concentration of protease inhibitors (Complete Mini, EDTA-free -Roche Applied Biosciences—Cat No 1836170). After shaking at room temperature for 10 min, 225 μL of cold ddH2O with added protease inhibitor (1 tablet/50 mL) was added per well and mixed by pipetting up and down. PPE extraction was completed by incubation at room temperature for an additional 1 hr. The plates were then centrifuged at 4000 rpm for 20 minutes and 200 μL of PPE supernatant was collected from each well and transferred to a new plate which was then blocked with equal volume of 4% milk (2% final) to prepare blocked PPE extracts. In the meantime, Maxisorp plates (Nunc 442404) coated with relevant antigen (human, mouse or cynomolgus monkey His6-GITR) at 50 μl/well of 1 μg/mL antigen or 2% BSA in PBS as control were prepared for ELISA analyses. Next, 50 μL of each blocked PPE extract was transferred to the pre-blocked ELISA plates coated with the relevant antigens. After incubation and washing 3× with PBS, 50 μL of anti-V5 tag antibody (tag included in the phage display constructs, Invitrogen Cat No R960-25) at 1:5000 dilution in 2% milk was added and the plates were incubated for 1 hr. […] After further washing 3× with PBST, 50 μl/well of TMB substrate was added and the plates were developed until positive controls were visible. The reaction was stopped with 50 μl/well of 2N H2SO4. Plates were read at 450 nm to determine ELISA signal from bound PPE derived scFv.

[2] = molecular target: T2, human His6-GITR; test: as above
Method: as §1

[3] = molecular target: T3, mouse His6-GITR; test: as above
Method: as §1

[4] = molecular target: T2, human His6-GITR; test: CARTERRA LSA, scFv periplasmic extract

Row | Binder | cGITR-His/BKG [1] | hGITR-His/BKG [2] | mGITR-His/BKG [3] | Kd [4]
1 | GITR-Mab-43 scFv (scFv, V domains shown, scFv in periplasmic extract, V5 tag) VH: QVQLVQSGAEVKKPGASVKVSCKASGYTFTSHDIDWVRQAPGQGLEWMGWMNPNNGNTVYAQRFQGRVTMTRDTSTSTVYMELSSLRSEDTAVYYCARWKVYSGSYYGGAGYFDLWGRGTLVTVSS VL: DIQMTQSPSSLSASVGDRVTITCRASQSISSYLNWYQQKPGKAPKLLIYRASHLEGGVPSRFSGSGSGTDFTLTISSLQPEDFATYYCQQADSLPLTFGQGTKVEIK | 12 fold over background | 11.7 fold over background | 14.6 fold over background | –
2 | GITR-Mab-17 scFv (scFv, V domains shown, scFv in periplasmic extract, V5 tag) VH: QVQLVQSGAEVKKPGASVKVSCKASGYTFTSYGISWVRQAPGQGLEWMGWMNPNSGNTGYAQKFQGRVTMTRDTSTSTVYMELSSLRSEDTAVYYCARLGLWFGEYQYYFDYWGQGTLVTVSS VL: not shown | – | 18.9 fold over background | 1.1 fold over background | 24.5 nM
3 | GITR-Mab-41 scFv (scFv, V domains shown, scFv in periplasmic extract, V5 tag) VH: QVQLVQSGAEVKKPGASVKVSCKASGGSFSDYAVSWVRQAPGQGLEWMGWMNPNSGNTGYAQKFQGRVTMTRDTSTSTVYMELSSLRSEDTAVYYCARELVRDGYNFALDYWGQGTLVTVSS VL: DIQMTQSPSSLSASVGDRVTITCRASQDIRNDLAWYQQKPGKAPKLLIYAASSLQSGVPSRFSGSGSGTDFTLTISSLQPEDFATYYCQQSFSTFYTFGQGTKLEIK | 10.3 fold over background | 9.9 fold over background | 10.4 fold over background | –
4 | GITR-Mab-44 scFv (scFv, V domains shown, scFv in periplasmic extract, V5 tag) VH: QVQLVQSGAEVKKPGASVKVSCKASGYTFTSHDIDWVRQAPGQGLEWMGWINPSGDSTSYAQKFQGRVTMTRDTSTSTVYMELSSLRSEDTAVYYCARYYGGNSYAFDIWGQGTMVTVSS VL: DIQMTQSPSSLSASVGDRVTITCRASESISPWVAWYQQKPGKAPKLLIYAASTLQSGVPSRFSGSGSGTDFTLTISSLQPEDFATYYCQQGTSTPYTFGQGTKLEIK | 12.3 fold over background | 12.4 fold over background | 15.6 fold over background | –
5 | GITR-Mab-23 scFv (scFv, V domains shown, scFv in periplasmic extract, V5 tag) VH: EVQLLESGGGLVQPGGSLRLSCAASGFPFSTYAIHWVRQAPGKGLEWVSAISGSGGSTYYADSVKGRFTISRDNSKNTLYLQMNSLRAEDTAVYYCAGPDWYFDLWGRGTLVTVSS VL: DIQMTQSPSSLSASVGDRVTITCRASQAISNSLAWYQQKPGKAPKLLIYAASTLQRGVPSRFSGSGSGTDFTLTISSLQPEDFATYYCQQYYSTPYTFGQGTKLEIK | 23.2 fold over background | 35.6 fold over background | 0.9 fold over background | –
6 | GITR-Mab-5 scFv (scFv, V domains shown, scFv in periplasmic extract, V5 tag) VH: EVQLLESGGGLVQPGGSLRLSCAASGFTFDAYAMHWVRQAPGKGLEWVSAIGTGGDTYYADSVKGRFTISRDNSKNTLYLQMNSLRAEDTAVYYCARDLYGSGSPQYYYYYGMDVWGQGTTVTVSS VL: DIQMTQSPSSLSASVGDRVTITCRASQGIKNDLGWYQQKPGKAPKLLIYAASSLQSGVPSRFSGSGSGTDFTLTISSLQPEDFATYYCQQSYSVPFTFGQGTKVEIK | 8 fold over background | 16.3 fold over background | 1.2 fold over background | 8.3 nM
7 | GITR-Mab-42 scFv (scFv, V domains shown, scFv in periplasmic extract, V5 tag) VH: QVQLVQSGAEVKKPGASVKVSCKASGYIFTNYWIQWVRQAPGQGLEWMGWINPHSGATKYAERFQGRVTMTRDTSTSTVYMELSSLRSEDTAVYYCARGLGSAFDIWGQGTMVTVSS VL: not shown | 4.2 fold over background | 5.5 fold over background | 1 fold over background | –
8 | GITR-Mab-46 scFv (scFv, V domains shown, scFv in periplasmic extract, V5 tag) VH: QVQLVQSGAEVKKPGASVKVSCKASGGSFSNYAINWVRQAPGQGLEWMGWMNPYSGNTGYAQKFQGRVTMTRDTSTSTVYMELSSLRSEDTAVYYCAREITANYYYGMDVWGQGTKVTVSS VL: DIQMTQSPSSLSASVGDRVTITCQASQDISNYLNWYQQKPGKAPKLLIYEASVLESGVPSRFSGSGSGTDFTLTISSLQPEDFATYYCQQSYTTQYTFGQGTKVEIK | 5.3 fold over background | 4 fold over background | 6.5 fold over background | –
9 | GITR-Mab-47 scFv (scFv, V domains shown, scFv in periplasmic extract, V5 tag) VH: QVQLVQSGAEVKKPGSSVKVSCKASGGTFSTYAINWVRQAPGQGLEWMGIINPTDGDTSYAQKFQGRVTITADESTSTAYMELSSLRSEDTAVYYCARAAYYYYGMDVWGQGTTVTVSS VL: not shown | 21 fold over background | 13 fold over background | 24.9 fold over background | –
10 | GITR-Mab-40 scFv (scFv, V domains shown, scFv in periplasmic extract, V5 tag) VH: EVQLLESGGGLVQPGGSLRLSCAASGFTFRNHWMSWVRQAPGKGLEWVSGISWNSGSIDYADSVKGRFTISRDNSKNTLYLQMNSLRAEDTAVYYCAREEYATFDYWGQGTLVTVSS VL: not shown | 15.5 fold over background | 13.9 fold over background | 23.2 fold over background | –
11 | GITR-Mab-48 scFv (scFv, V domains shown, scFv in periplasmic extract, V5 tag) VH: QVQLVQSGAEVKKPGASVKVSCKASGYSFTSHDIDWVRQAPGQGLEWMGWINPNSGGTNYAQKFQGRVTMTRDTSTSTVYMELSSLRSEDTAVYYCARIRGYYGSGSYHDAFDIWGQGTTVTVSS VL: not shown | 8.9 fold over background | 9.4 fold over background | 9.5 fold over background | –
12 | GITR-Mab-3 scFv (scFv, V domains shown, scFv in periplasmic extract, V5 tag) VH: QVQLVQSGAEVKKPGASVKVSCKASGYTFTSYDINWVRQAPGQGLEWMGWISGYNGNTNYAQKFQGRVTMTRDTSTSTVYMELSSLRSEDTAVYYCARSHEYYYYYGMDVWGQGTLVTVSS VL: EIVMTQSPATLSVSPGERATLSCRASQSVSSSYLAWYQQKPGQAPRLLIYGASTRATGIPARFSGSGSGTEFTLTISSLQSEDFAVYYCQQYYTTPFTFGPGTKVDIK | 11.1 fold over background | 12.1 fold over background | 1 fold over background | 10.5 nM
13 | GITR-Mab-25 scFv (scFv, V domains shown, scFv in periplasmic extract, V5 tag) VH: QVQLVQSGAEVKKPGASVKVSCKASGGTFSSYAISWVRQAPGQGLEWMGWVSGYNGNANYAQKFQGRVTMTRDTSTSTVYMELSSLRSEDTAVYYCARDRVESGYSYHDAFDIWGQGTMVTVSS VL: DIQMTQSPSSLSASVGDRVTITCRTSQSIRRYLNWYQQKPGKAPKLLIYAASSLQSGVPSRFSGSGSGTDFTLTISSLQPEDFATYYCQQSYSIPWTFGPGTKVDIK | 1.1 fold over background | 22.2 fold over background | 1.1 fold over background | –
14 | GITR-Mab-39 scFv (scFv, V domains shown, scFv in periplasmic extract, V5 tag) VH: EVQLLESGGGLVKPGGSLRLSCAASGFTFSSYWMSWVRQAPGKGLEWVSSISWSSTYIYYADSVKGRFTISRDDSKNTLYLQMNSLKTEDTAVYYCARDGQLGHWHFDLWGRGTLVTVSS VL: DIQMTQSPSSLSASVGDRVTITCRASQSISDWLAWYQQKPGKAPKLLIYEASKLATGVPSRFSGSGSGTDFTLTISSLQPEDFATYYCQQSYTTPLTFGGGTKVEIK | 4 fold over background | 4.2 fold over background | 4.4 fold over background | –
15 | GITR-Mab-26 scFv (scFv, V domains shown, scFv in periplasmic extract, V5 tag) VH: QVQLVQSGAEVKKPGASVKVSCKASGYTFTSYGISWVRQAPGQGLEWMGWMNPNNGNTVYAQKFQGRVTMTRDTSTSTVYMELSSLRSEDTAVYYCAKDSDWYGAFDIWGQGTMVTVSS VL: DIQMTQSPSSLSASVGDRVTITCQASQSISRWLAWYQQKPGKAPKLLIYSASSLQSGVPSRFSGSGSGTDFTLTISSLQPEDFATYYCQQSYSTPWTFGQGTKLEIK | 0.8 fold over background | 12.7 fold over background | 1.1 fold over background | –
